Measurements reported in the supplement of paper PMC12338614.
± gives the uncertainty stated by the source.

B1: library; numbered along this chain (parent)
chain: MEVVDPQQLGMFTEGELMSVGMDTFIHRIDSTEVIYQPRRKRAKLIGKYLMGDLLGEGSYGKVKEVLDSETLCRRAVKILKKKKLRRIPNGEANVKKEIQLLRRLRHKNVIQLVDVLYNEEKQKMYMVMEYCVCGMQEMLDSVPEKRFPVCQAHGYFCQLIDGLEYLHSQGIVHKDIKPGNLLLTTGGTLKISDLGVAEALHPFAADDTCRTSQGSPAFQPPEIANGLDTFSGFKVDIWSAGVTLYNITTGLYPFEGDNIYKLFENIGKGSYAIPGDCGPPLSDLLKGMLEYEPAKRFSIRQIRQHSWFRKKHPPAEAPVPIPPSPDTKDRWRSMTVVPYLEDLHGADEDEDLFDIEDDIIYTQDFTVPGQVPEEEASHNGQRRGLPKAVCMNGTEAAQLSTKSRAEGRAPNPARKACSASSKIRRLSACKQQ

Variants of: B1
Experiment: STK11 functional score (HeLa growth suppression), rescaled enrichment; synonymous median = 1, nonsense median = 0 (normalised score)
Details: with HeLa; variant type: missense
Outline: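 Codon-randomised (POPCode) libraries of codon-optimised STK11 were integrated by Bxb1 at an AAVS1 landing pad in HeLa, in three regions each transfected three times. Integrants (BFP-negative, mCherry-positive) were FACS-sorted 4–5 days after electroporation and grown about two weeks; tiled gDNA amplicons were sequenced on NextSeq (~2 million reads per tile). The functional score is the wild-type-corrected post/pre-selection log ratio, rescaled to synonymous and nonsense medians, merged over codons and replicate transfections, with bootstrapped error.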
MEVVDPQQLGMFTEGELMSVGMDTFIHRIDSTEVIYQPRRKRAKLIGKYLMGDLLGEGSYGKVKEVLDSETLCRRAVKILKKKKLRRIPNGEANVKKEIQLLRRLRHKNVIQLVDVLYNEEKQKMYMVSEYCVCGMQEMLDSVPEKRFPVCQAHGYFCQLIDGLEYLHSQGIVHKDIKPGNLLLTTGGTLKISDLGVAEALHPFAADDTCRTSQGSPAFQPPEIANGLDTFSGFKVDIWSAGVTLYNITTGLYPFEGDNIYKLFENIGKGSYAIPGDCGPPLSDLLKGMLEYEPAKRFSIRQIRQHSWFRKKHPPAEAPVPIPPSPDTKDRWRSMTVVPYLEDLHGADEDEDLFDIEDDIIYTQDFTVPGQVPEEEASHNGQRRGLPKAVCMNGTEAAQLSTKSRAEGRAPNPARKACSASSKIRRLSACKQQ [M129S] gave an STK11 functional score of 0.731 ± 0.16.
Variant MEVVDPQQLGMFTEGELMSVGMDTFIHRIDSTEVIYQPRRKRAKLIGKYLMGDLLGEGSYGKVKEVLDSETLCRRAVKILKKKKLRRIPNGEANVKKEIQLLRRLRHKNVIQLVDVLYNEEKQKMYMVMEYCVCGMQEMLDSVPEKRFPVCQAHGYFCQLIDGLEYLHSQGIVHKDIKPGNLLLTTGGTLKISDLGVAEALHPFAADDTCRTSQGSPAFQPPEIANGLDTFSGFKVDIWSAGVTLYNITTGLYPFEGDNIYKLFENIGKGSYAIPGDCGPPLSDLLKGMLEYEPAKRFSIRQIRQHSWFRKKHPPAEAPVPIPPSPDTKDRWRSMTGVPYLEDLHGADEDEDLFDIEDDIIYTQDFTVPGQVPEEEASHNGQRRGLPKAVCMNGTEAAQLSTKSRAEGRAPNPARKACSASSKIRRLSACKQQ [V337G] has an STK11 functional score of 1.13 ± 0.34.
MEVVDPQQLGMFTEGELMSVGMDTFIHRIDSTEVIYQPRRKRAKLIGKYLMGDLLGEGSYGKVKEVLDSETLCRRAVKILKKKKLRRIPNGEANVKKEIQLLRRLRHKNVIQLVDVLYNEEKQKMYMVMEYCVCGMQEMLDSVPEKRFPVCQAHGYFCQLIDGLEYLHSQGIVHKDIKPGNLLLTTGGTLKISDLGVAEALHPFAADDTCRTSQGSPAFQPPEIANGLDTFSGFKVDIWSAMVTLYNITTGLYPFEGDNIYKLFENIGKGSYAIPGDCGPPLSDLLKGMLEYEPAKRFSIRQIRQHSWFRKKHPPAEAPVPIPPSPDTKDRWRSMTVVPYLEDLHGADEDEDLFDIEDDIIYTQDFTVPGQVPEEEASHNGQRRGLPKAVCMNGTEAAQLSTKSRAEGRAPNPARKACSASSKIRRLSACKQQ [G242M] showed an STK11 functional score of -0.0974 ± 0.093.
MEVVDPQQLGMFTEGELMSVGMDTFIHRIDSTEVIYQPRRKRAKLIGKYLMGDLLGEGSYGKVKEVLDSETLCRRAVKILKKKKLRRIPNGEANVKKEIQLLRRLRPKNVIQLVDVLYNEEKQKMYMVMEYCVCGMQEMLDSVPEKRFPVCQAHGYFCQLIDGLEYLHSQGIVHKDIKPGNLLLTTGGTLKISDLGVAEALHPFAADDTCRTSQGSPAFQPPEIANGLDTFSGFKVDIWSAGVTLYNITTGLYPFEGDNIYKLFENIGKGSYAIPGDCGPPLSDLLKGMLEYEPAKRFSIRQIRQHSWFRKKHPPAEAPVPIPPSPDTKDRWRSMTVVPYLEDLHGADEDEDLFDIEDDIIYTQDFTVPGQVPEEEASHNGQRRGLPKAVCMNGTEAAQLSTKSRAEGRAPNPARKACSASSKIRRLSACKQQ [H107P] showed an STK11 functional score of 0.25 ± 0.083.
MEVVDPQQLGMFTEGELMSVGMDTFIHRIDSTEVIYQPRRKRAKLIGKYLMGDLLGEGSYGKVKEVLDSETLCRRAVKILKKKKLRRIPNGEANVKKEIQLLRRLRHKNVIQLVDVLYNEEKQKIYMVMEYCVCGMQEMLDSVPEKRFPVCQAHGYFCQLIDGLEYLHSQGIVHKDIKPGNLLLTTGGTLKISDLGVAEALHPFAADDTCRTSQGSPAFQPPEIANGLDTFSGFKVDIWSAGVTLYNITTGLYPFEGDNIYKLFENIGKGSYAIPGDCGPPLSDLLKGMLEYEPAKRFSIRQIRQHSWFRKKHPPAEAPVPIPPSPDTKDRWRSMTVVPYLEDLHGADEDEDLFDIEDDIIYTQDFTVPGQVPEEEASHNGQRRGLPKAVCMNGTEAAQLSTKSRAEGRAPNPARKACSASSKIRRLSACKQQ [M125I] was tested, and the STK11 functional score was 1.11 ± 0.19.
MEVVDPQQLGMFTEGELMSVGMDTFIHRIDSTEVIYQPRRKRVKLIGKYLMGDLLGEGSYGKVKEVLDSETLCRRAVKILKKKKLRRIPNGEANVKKEIQLLRRLRHKNVIQLVDVLYNEEKQKMYMVMEYCVCGMQEMLDSVPEKRFPVCQAHGYFCQLIDGLEYLHSQGIVHKDIKPGNLLLTTGGTLKISDLGVAEALHPFAADDTCRTSQGSPAFQPPEIANGLDTFSGFKVDIWSAGVTLYNITTGLYPFEGDNIYKLFENIGKGSYAIPGDCGPPLSDLLKGMLEYEPAKRFSIRQIRQHSWFRKKHPPAEAPVPIPPSPDTKDRWRSMTVVPYLEDLHGADEDEDLFDIEDDIIYTQDFTVPGQVPEEEASHNGQRRGLPKAVCMNGTEAAQLSTKSRAEGRAPNPARKACSASSKIRRLSACKQQ [A43V] showed an STK11 functional score of 0.673 ± 0.17.
MEVVDPQQLGMFTEGELMSVGMDTFIHRIDSTEVIYQPRRKRAKLIGKYLMGDLLGEGSYGKVKEVLDSETLCRRAVKILKKKKLRRIPNGEANVKKEIQLLRRLRHKNVIQLVDVLYNEEKQKMYMVMEYCVCGMQEMLDSVPEKRFPVCQAHGYFCQLIDGLEYLHSQGIVHKDIKPGNLLLTTGGTLKISDLGVAEALHPFAADDTCRTSQGSPAFQPPEIANGLDTFSGFKVDIWSAGVTLYNITTGLYPFEGDNIYKLFENIGKGSYAIPGDCGPPLSDLLKGMLEYEPAKRFSIRQIRQHSWFRKKHPPAEAPVPIPPSPDTKDRWRSMTVVPYLEDLHGADEDEDLFDIEDDIIYTQDFTVPGQVPEEEASHNGQRRGLPKAVCMNGTEAAQLSTKSRAEGRAPNPARKACSASSFIRRLSACKQQ [K423F] was tested, and the STK11 functional score was 1.07 ± 0.33.
In the case of MEVVDPQQLGMFTEGELMSVGMDTFIHRIDSTEVIYQPRRKRAKLIGKYLMGDLLGEGSYGKVKEVLDSETLCRRAVKILKKKKLRRIPNGEANVKKEIQLLRRLRHKNVIQLVDVLYNEEKQKMYMVMEYCVCGMQEMLDSVPEKRFPVCQAHGYFCQLIDGLEYLHSQGIVHKDIKPGNLLLTTGGTLKISDLGVAEALHPFAADDTCRTSQGSPAFQPPEIANGLDTFSGFKVDIWSAGVTLYNITTGLYPFEGDNIYKLFENIGKGSYAIPGDCGPPLSDLLKGMLEYEPAKRFSIRQIRQHSWFRKKHPPAEAPVPIPPSPDTKDRWRSMTVVPYLEDLHGADEDEDLFDIEDDIIYTQDFTVPGQVPEEEASHNGQRRGLPKAVCMNGTRAAQLSTKSRAEGRAPNPARKACSASSKIRRLSACKQQ [E396R], the STK11 functional score is reported as 1.53 ± 0.22.
Work on MEVVDPQQLGMFTEGELMSVGMDTFIHRIDSTEVIYQPRRKRAKLIGKYLMGDLLGEGSYGKVKEVLDSETLCRRAVKILKKKKLRRIPNGEANVKKEIQLLRRLRHKNVIQLVDVLYNEEKQKMYMVMEYCVCGMQEMLDSVPEKRFPVCQAHGYFCQLIDGLEYLHSQGIVHKDIKPGNLLLTTGGTLKISDLGVAEALHPFAADDTCRTSQGSPAFQPPEIANGLDTFSGFKVDIWSAGVTLYNITTGSYPFEGDNIYKLFENIGKGSYAIPGDCGPPLSDLLKGMLEYEPAKRFSIRQIRQHSWFRKKHPPAEAPVPIPPSPDTKDRWRSMTVVPYLEDLHGADEDEDLFDIEDDIIYTQDFTVPGQVPEEEASHNGQRRGLPKAVCMNGTEAAQLSTKSRAEGRAPNPARKACSASSKIRRLSACKQQ [L252S] yielded an STK11 functional score of 1.5 ± 0.22.
With MEVVDWQQLGMFTEGELMSVGMDTFIHRIDSTEVIYQPRRKRAKLIGKYLMGDLLGEGSYGKVKEVLDSETLCRRAVKILKKKKLRRIPNGEANVKKEIQLLRRLRHKNVIQLVDVLYNEEKQKMYMVMEYCVCGMQEMLDSVPEKRFPVCQAHGYFCQLIDGLEYLHSQGIVHKDIKPGNLLLTTGGTLKISDLGVAEALHPFAADDTCRTSQGSPAFQPPEIANGLDTFSGFKVDIWSAGVTLYNITTGLYPFEGDNIYKLFENIGKGSYAIPGDCGPPLSDLLKGMLEYEPAKRFSIRQIRQHSWFRKKHPPAEAPVPIPPSPDTKDRWRSMTVVPYLEDLHGADEDEDLFDIEDDIIYTQDFTVPGQVPEEEASHNGQRRGLPKAVCMNGTEAAQLSTKSRAEGRAPNPARKACSASSKIRRLSACKQQ [P6W] the STK11 functional score was 0.513 ± 0.074.
MEVVDPQQLGMFTEGELMSVGMDTFIHRIDSTEVIYQPRRKRAKLIGKYLMGDLLGEGSYGKVKEVLDSETLCRRAVKILKKKKLRRIPNGEANVKKEIQLLRRLRHKNVIQLVDVLYNEEKQKMYMVMEYCVCGMQEMLDSVPEKRFPVCQAHGYFCQLIDGLEYLHSQGIVHKDIKPGNLLLTTGGTLKISDLGVAEALHPFAADDTCRTSQGSPAFQPPEIANGLDTFSGFKVDIWSAGVTLYNITTGLYPFEGDNIYKLFENIGKGSYAIPGDCGPPLSDALKGMLEYEPAKRFSIRQIRQHSWFRKKHPPAEAPVPIPPSPDTKDRWRSMTVVPYLEDLHGADEDEDLFDIEDDIIYTQDFTVPGQVPEEEASHNGQRRGLPKAVCMNGTEAAQLSTKSRAEGRAPNPARKACSASSKIRRLSACKQQ [L285A] was tested, and the STK11 functional score was -0.0789 ± 0.071.
MEVVDPQQLGMFTEGELMSVGMDTFIHRIDSTEVIYQPRRKRAKLIGKYLMGDLLGEGSYGKVKEVLDSETLCRRAVKILKKKKLRRIPNGEANVKKEIQLLRRLRHKNVIQLVDVLYNEEKQKMYMVMEYCVCGMQEMLDSVPEKRFPVCQAHGYFCQLIDGLEYLHSQGIVHKDIKPGNLLLTTGGTLKISDLGVAEALHPFAADDTCRTSQGSPAFQPPEIANGLDTFSGFKVDIWSAGVTLYNITTGLYPFEGDNIYKLFENIGKGSYAIPGDCGPPLSDLLKGMLEYEPAKRFSIRQIRQHSWFRKKHPPAEAPVPIPPSPDTKDRWRSMTVVPYLEDLHGADEDEDLFDIEDDIIYTQDFTVPGQVPEEEASHNGQRRGLPKAVCMNGTEAANLSTKSRAEGRAPNPARKACSASSKIRRLSACKQQ [Q399N] gave an STK11 functional score of 1.39 ± 0.35.
Work on MEVVDPQQLGMFTEGELMSVGMDTFIHRIDSTEVIYQPRRKRAKLIGKYLMGDLLGEGSYGKVKEVLDSETLCRRAVKILKKKKLRRIPNGEANVKKEIQLLRRLRHKNVIQLVDVLYNEEKQKMYYVMEYCVCGMQEMLDSVPEKRFPVCQAHGYFCQLIDGLEYLHSQGIVHKDIKPGNLLLTTGGTLKISDLGVAEALHPFAADDTCRTSQGSPAFQPPEIANGLDTFSGFKVDIWSAGVTLYNITTGLYPFEGDNIYKLFENIGKGSYAIPGDCGPPLSDLLKGMLEYEPAKRFSIRQIRQHSWFRKKHPPAEAPVPIPPSPDTKDRWRSMTVVPYLEDLHGADEDEDLFDIEDDIIYTQDFTVPGQVPEEEASHNGQRRGLPKAVCMNGTEAAQLSTKSRAEGRAPNPARKACSASSKIRRLSACKQQ [M127Y] yielded an STK11 functional score of 1.24 ± 0.2.
Work on MEVVDPQQLGMFTEGELMSVGMDTFIHRLDSTEVIYQPRRKRAKLIGKYLMGDLLGEGSYGKVKEVLDSETLCRRAVKILKKKKLRRIPNGEANVKKEIQLLRRLRHKNVIQLVDVLYNEEKQKMYMVMEYCVCGMQEMLDSVPEKRFPVCQAHGYFCQLIDGLEYLHSQGIVHKDIKPGNLLLTTGGTLKISDLGVAEALHPFAADDTCRTSQGSPAFQPPEIANGLDTFSGFKVDIWSAGVTLYNITTGLYPFEGDNIYKLFENIGKGSYAIPGDCGPPLSDLLKGMLEYEPAKRFSIRQIRQHSWFRKKHPPAEAPVPIPPSPDTKDRWRSMTVVPYLEDLHGADEDEDLFDIEDDIIYTQDFTVPGQVPEEEASHNGQRRGLPKAVCMNGTEAAQLSTKSRAEGRAPNPARKACSASSKIRRLSACKQQ [I29L] yielded an STK11 functional score of 1 ± 0.15.
